# Measured values taken from the DeepSol protein solubility set.
# Test: soluble on expression in E. coli; label from the status in PepcDB or PDB records
row,Sequence,soluble on expression in E. coli
1,MSLRRDHTRTAQVTHVESLTNSPGVRENWPGWASPAVVERMVKSGVAKPWSHQVRAANLAHSGSNVIIATGISSGKSLGFLMPCTAAIAEGGSVLYLAPTKALAADQERKLAELAMPGVRAAVYDGDTPMEERSWARAHANYVLTNPDMLHRSIVARHPVWAGFLRRLSYVVVDEAHHYRGVFGSHVAQIMRRLRRVCGCYGAEPRFILASATTATPAETAQQLTGLPVVAVTGDGSARASLRFALVEPELTEKTGEQGAPMRRTATAVAAELLADLVSHEVSTLVFVRSRQAAELVALAAQRALADAGRPELARRVAAYRGGYLAEDRRRLEQRLRSGELLGLATTNALELGVDVSGLDAVVMAGWPGTRASLWQQAGRAGRSGRDALAVFVARDDPLDTYLVHHPDAIFGQDVEATVLDPDNPYVLAPHLCAAAEEEGHHHHHH,not soluble
2,MSLRTTASEFDNFGYGVSDSLGMRDHVSARDLFVQKFRGKENEMLLCAFDGKHGATNQGHRISLVAKNMFVRNFTKELDEIKNDDEIENALRKAFLNFNKEINGILTAKKNKSFTPVPNMSKEALELNLVDDGNAGCTVSVIYIKDKKLYSANIGDIEALLCRNNGDQFLLTEKHDPTNREEFERIRASGGYVSGGGELDGQLSVSRGVGFFNFLPHTHCGPTIRRFKITNDDDMIILGSKQLWDFISYESAVDIIRKDKNDPMVAAQKLRDFAICYGATDKICVIVLTFGNREGHHHHHH,soluble
3,MSLRVLGIETSCDETAVAVLDDGKNVVVNFTVSQIEVHQKFGGVVPEVAARHHLKNLPILLKKAFEKVPPETVDVVAATYGPGLIGALLVGLSAAKGLAISLEKPFVGVNHVEAHVQAVFLANPDLKPPLVVLMVSGGHTQLMKVDEDYSMEVLGETLDDSAGEAFDKVARLLGLGYPGGPVIDRVAKKGDPEKYSFPRPMLDDDSYNFSFAGLKTSVLYFLQREKGYKVEDVAASFQKAVVDILVEKTFRLARNLGIRKIAFVGGVAANSMLREEVRKRAERWNYEVFFPPLELCTDNALMVAKAGYEKAKRGMFSPLSLNADPNLNVEGHHHHHH,soluble
4,MSLRVQANSRSMGVLEDKARARTFYKYLSKVYDRVNTFIWTEEMRAEALSMLDIDAEDRVLDVGCGTGFGTEGLLKHTEHVYGLDQSPHQLTKAWEKFGKHDPVAFHFGDAERLPFKPDSFDVVWSSGSIEYWPHPVQGLRELRRVAKPGSQVLVVGPDYPASTVFRKLADAIMLFYDEDEADRMFREAGYEEIQHRVLRKEPNSPPAIVTVARAPAADDEGHHHHHH,soluble
5,MSLRYIVVGASAAGISGAKTLRELDKDAEIILVSKDENVYSRCILHHYISGHRDIEALDFTDRDFFEKYNIEWKKGLEVKAIDDREHVIVLSNGESLKYDKILLATGASAFIPPVENLREAKNVVGLRNLEDAIKIKEEAEKVKNVVVLGAGLVGIDAIAGLAFKDLNVTLVEMGDRVLPIQLDKYASSKYEKRFEDAGVKLKLGVRAEKVLIDENKNPKALLINTGEEIPCELIIVATGVRSNVAFLKDSSIETDRFGLIINEKGETNARDVYGAGDITGRNPIWPTAVKEGIIAANNMVGNEIFMEDFFGSKNTMNFLGLTTMSLGVVNAPDDSYTEEIDISGENYKKIIHKDGKIYGAIIQGDLSYAGVLTQLIKEKIHVSKVKKPLFEIDYADFFNIKENLEYTYEGHHHHHH,soluble
6,MSLRYTKEQCTAAEAQRLAQEIAFGPVVFQVSRLMLKFGIFQLLSGKREGYTLQEISGRTGLTRYAAQVLLEASLTIGTILLEEDRYVLAKAGWFLLNDKMARVNMEFNHDVNYQGLFHLEEALLNGRPEGLKVFGEWPTIYEGLSQLPEQVQKSWFGFDHFYSDQSFGKALEIVFSHHPKRLLDIGGNTGKWATQCVQYNKEVEVTIVDLPQQLEMMRKQTAGLSGSERIHGHGANLLDRDVPFPTGFDAVWMSQFLDCFSEEEVISILTRVAQSIGKDSKVYIMETLWDRQRYETASYCLTQISLYFTAMANGNSKMFHSDDLIRCIENAGLEVEEIQDNIGLGHSILQCRLKEGHHHHHH,soluble
